Measured values: patent US20190144498A1 (Johns Hopkins, published 2019)
* marks the point of attachment. B(OH)2 = OB(O)*

Molecular target: T1, endogenous GlpG in living E. coli cells (Escherichia coli, UniProt P09391 1-276)
T1 sequence (looked up): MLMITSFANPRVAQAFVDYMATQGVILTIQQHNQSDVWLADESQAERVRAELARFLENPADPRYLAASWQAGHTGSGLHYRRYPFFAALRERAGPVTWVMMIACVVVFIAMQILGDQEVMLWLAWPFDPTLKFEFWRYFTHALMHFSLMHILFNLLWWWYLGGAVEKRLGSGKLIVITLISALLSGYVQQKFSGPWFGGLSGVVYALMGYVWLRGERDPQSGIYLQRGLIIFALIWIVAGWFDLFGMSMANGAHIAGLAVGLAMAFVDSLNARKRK
Assay: cell-based or functional assay

B1: Ac-VRMA-B(OH)2 (peptide)
peptide: Ac-VRMA-{B(OH)2}
SMILES: CSCC[C@H](NC(=O)[C@H](CCCNC(=N)N)NC(=O)[C@@H](NC(C)=O)C(C)C)C(=O)N[C@@H](C)C(=O)B(O)O
  EC50 of inhibition of endogenous GlpG activity (TatA-Flag cleavage) in living E. coli cells: < 1000 nM
  fold increase in potency of GlpG inhibition relative to the aldehyde (Ac-VRMA-CHO): > 100 fold
  fold increase in potency of GlpG inhibition relative to the chloromethylketone (Ac-VRMA-CMK): > 400 fold
